Target: the molecule itself
Assay: native gel or EMSA

B1: KaiC (natural protein, Synechococcus elongatus PCC 7942, UniProt Q79PF4 1-519, looked up)
chain: MTSAEMTSPNNNSEHQAIAKMRTMIEGFDDISHGGLPIGRSTLVSGTSGTGKTLFSIQFLYNGIIEFDEPGVFVTFEETPQDIIKNARSFGWDLAKLVDEGKLFILDASPDPEGQEVVGGFDLSALIERINYAIQKYRARRVSIDSVTSVFQQYDASSVVRRELFRLVARLKQIGATTVMTTERIEEYGPIARYGVEEFVSDNVVILRNVLEGERRRRTLEILKLRGTSHMKGEYPFTITDHGINIFPLGAMRLTQRSSNVRVSSGVVRLDEMCGGGFFKDSIILATGATGTGKTLLVSRFVENACANKERAILFAYEESRAQLLRNAYSWGMDFEEMERQNLLKIVCAYPESAGLEDHLQIIKSEINDFKPARIAIDSLSALARGVSNNAFRQFVIGVTGYAKQEEITGLFTNTSDQFMGAHSITDSHISTITDTIILLQYVEIRGEMSRAINVFKMRGSWHDKAIREFMISDKGPDIKDSFRNFERIISGSPTRITVDEKSELSRIVRGVQEKGPES
modifications: phosphorylation level changes over the incubation with KaiA, KaiB and ATP (autophosphorylation)
- stoichiometry N: 6

B2: KaiA (natural protein, Synechococcus elongatus PCC 7942, UniProt Q79PF6 1-284, looked up)
chain: MLSQIAICIWVESTAILQDCQRALSADRYQLQVCESGEMLLEYAQTHRDQIDCLILVAANPSFRAVVQQLCFEGVVVPAIVVGDRDSEDPDEPAKEQLYHSAELHLGIHQLEQLPYQVDAALAEFLRLAPVETMADHIMLMGANHDPELSSQQRDLAQRLQERLGYLGVYYKRDPDRFLRNLPAYESQKLHQAMQTSYREIVLSYFSPNSNLNQSIDNFVNMAFFADVPVTKVVEIHMELMDEFAKKLRVEGRSEDILLDYRLTLIDVIAHLCEMYRRSIPRET
- stoichiometry N: 2

B3: KaiB (natural protein, Synechococcus elongatus PCC 7942, UniProt Q79PF5 1-102, looked up)
chain: MSPRKTYILKLYVAGNTPNSVRALKTLKNILEVEFQGVYALKVIDVLKNPQLAEEDKILATPTLAKVLPLPVRRIIGDLSDREKVLIGLDLLYGELQDSDDF
- stoichiometry N: 4

From PMC1847943 (Molecular Systems Biology, 2007)
